According to patent US7223730:
Values joined by “and” are separate entries in the source; they are usually repeats but may differ in a detail not shown here. Equal entries are not always repeated.

Key:
human fibrinogen = human fibrinogen (UniProt P02671)

antithrombosis enzyme purified from the snake venom of Southern-Anhui Agkistrodon acutus
fibrinogen cleavage (human fibrinogen): One fibrinogen cleavage site was found to be Met 235-Pro236 of the α chain of human fibrinogen | proteolytic activity (azocasein hydrolysis, absorbance at 390 nm) (azocasein): No proteolytic activity was detected in this assay | fibrinolytic activity (fibrin): 1 fibrinolytic activity unit per mg protein | fibrinolytic activity (fibrin-plate-clearance assay) (fibrin; scale: fibrinolytic activity units per mg of enzyme): 1 and 3
